# Target: Sec23a/Sec24d (full-length, wild type) (H. sapiens) (UniProt Q15436)
# Test: cell-based or functional assay
# Conditions: scale: % of protein present in starting permeabilized cells
# Chain of Sec23a/Sec24d (full-length, wild type) (H. sapiens) (Q15436 whole entry, chain 1 of 2): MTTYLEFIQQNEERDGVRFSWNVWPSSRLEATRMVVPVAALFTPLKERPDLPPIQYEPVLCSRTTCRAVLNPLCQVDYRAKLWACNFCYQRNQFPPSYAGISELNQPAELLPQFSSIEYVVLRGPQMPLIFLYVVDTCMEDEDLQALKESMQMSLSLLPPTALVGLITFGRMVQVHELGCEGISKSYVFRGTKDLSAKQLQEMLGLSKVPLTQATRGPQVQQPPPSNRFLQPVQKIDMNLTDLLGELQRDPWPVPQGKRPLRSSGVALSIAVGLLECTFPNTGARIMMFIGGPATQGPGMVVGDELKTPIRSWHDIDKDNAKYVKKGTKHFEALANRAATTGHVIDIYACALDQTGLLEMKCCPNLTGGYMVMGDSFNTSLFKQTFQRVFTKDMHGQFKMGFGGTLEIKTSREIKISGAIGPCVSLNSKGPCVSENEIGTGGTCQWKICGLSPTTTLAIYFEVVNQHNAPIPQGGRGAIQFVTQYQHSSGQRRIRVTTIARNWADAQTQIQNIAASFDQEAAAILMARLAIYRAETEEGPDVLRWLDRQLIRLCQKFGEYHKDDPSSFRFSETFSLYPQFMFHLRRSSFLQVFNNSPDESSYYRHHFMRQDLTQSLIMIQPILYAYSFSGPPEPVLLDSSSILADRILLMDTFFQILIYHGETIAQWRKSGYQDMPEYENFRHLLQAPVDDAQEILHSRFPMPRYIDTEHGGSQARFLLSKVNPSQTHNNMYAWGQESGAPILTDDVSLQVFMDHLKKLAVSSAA
# Chain of Sec23a/Sec24d (full-length, wild type) (H. sapiens) (O94855 other isoform, or with tags, fused parts or gaps, chain 2 of 2, further chain): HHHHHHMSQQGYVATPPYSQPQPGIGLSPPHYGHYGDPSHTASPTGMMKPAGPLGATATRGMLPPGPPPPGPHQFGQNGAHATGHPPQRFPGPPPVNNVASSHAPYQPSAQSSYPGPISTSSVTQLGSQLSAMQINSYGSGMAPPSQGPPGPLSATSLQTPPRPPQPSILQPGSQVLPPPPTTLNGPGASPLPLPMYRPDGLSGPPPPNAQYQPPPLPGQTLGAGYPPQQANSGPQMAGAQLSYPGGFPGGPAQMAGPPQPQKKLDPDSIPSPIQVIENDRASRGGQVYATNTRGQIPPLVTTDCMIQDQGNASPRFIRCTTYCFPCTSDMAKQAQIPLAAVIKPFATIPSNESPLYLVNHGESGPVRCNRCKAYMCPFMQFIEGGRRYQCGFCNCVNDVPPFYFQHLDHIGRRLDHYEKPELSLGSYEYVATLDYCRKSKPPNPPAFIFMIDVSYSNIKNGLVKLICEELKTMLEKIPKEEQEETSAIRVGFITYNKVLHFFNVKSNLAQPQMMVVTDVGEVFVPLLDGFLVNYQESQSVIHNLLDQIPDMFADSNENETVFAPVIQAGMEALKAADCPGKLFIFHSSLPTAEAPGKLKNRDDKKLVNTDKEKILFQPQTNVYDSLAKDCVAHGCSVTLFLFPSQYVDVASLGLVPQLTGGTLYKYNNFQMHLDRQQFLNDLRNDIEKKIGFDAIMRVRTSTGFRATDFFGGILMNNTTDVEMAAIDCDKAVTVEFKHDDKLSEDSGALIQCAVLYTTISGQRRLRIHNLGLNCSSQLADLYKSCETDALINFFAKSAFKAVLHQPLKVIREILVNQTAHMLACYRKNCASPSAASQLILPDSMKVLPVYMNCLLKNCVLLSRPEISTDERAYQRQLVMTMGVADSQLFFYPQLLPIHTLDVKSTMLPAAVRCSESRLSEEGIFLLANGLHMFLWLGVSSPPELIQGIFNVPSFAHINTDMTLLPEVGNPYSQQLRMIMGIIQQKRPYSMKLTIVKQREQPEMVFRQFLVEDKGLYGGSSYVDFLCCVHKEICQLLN
Substance,"packaging efficiency with wild-type COPII, CHO-LDLRG544V cells","packaging efficiency with wild-type COPII, wild-type CHO cells"
ERGIC-53,4.5,
p24δ1,7.7,4.6

# Now from value to substance:
"packaging efficiency with wild-type COPII, CHO-LDLRG544V cells","packaging efficiency with wild-type COPII, wild-type CHO cells",Substance
8.7,10.9,p24α2
10.6,,p24β1
6.4,6.4,p24α3
